From patent publication US20150344570A1 (published 2015)

T1: FcγRIIb (human, UniProt P31994 43-217)
T1 construct: extracellular domain; Soluble extracellular domain with C-terminal His tag, used as analyte; also called FcgRIIb; CD32B; not shown: His tag at the C terminus
T1 sequence (looked up): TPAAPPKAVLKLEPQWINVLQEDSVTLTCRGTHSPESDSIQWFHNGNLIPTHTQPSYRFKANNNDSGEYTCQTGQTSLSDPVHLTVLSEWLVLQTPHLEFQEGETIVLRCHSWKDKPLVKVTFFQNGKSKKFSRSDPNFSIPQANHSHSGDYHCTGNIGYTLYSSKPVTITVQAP


Assays:
FcγRIa = biological target: T2, FcγRIa (human, UniProt P12314 16-292); assay: SPR (Biacore), captured antibody, FcγR as analyte, relative binding
T2 construct: extracellular domain; Soluble extracellular domain with C-terminal His tag, used as analyte; also called FcgRI; CD64; not shown: His tag at the C terminus
T2 sequence (P12314 16-292): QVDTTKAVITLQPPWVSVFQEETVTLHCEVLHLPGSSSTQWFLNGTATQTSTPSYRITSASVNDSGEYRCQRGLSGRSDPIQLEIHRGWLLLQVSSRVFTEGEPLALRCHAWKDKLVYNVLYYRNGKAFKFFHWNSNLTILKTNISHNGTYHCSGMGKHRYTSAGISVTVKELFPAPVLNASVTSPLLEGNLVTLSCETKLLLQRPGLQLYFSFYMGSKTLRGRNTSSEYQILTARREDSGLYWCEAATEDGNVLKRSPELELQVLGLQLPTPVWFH

FcγRIIb = biological target: T1, FcγRIIb; assay: as above

Row | Binder | He/Con_1a (FcγRIa) | He/Con_2b (FcγRIIb)
1 | GpH7-A5/GpH7-B3 variant S324_12R/GpL16-k0 (antibody, human IgG1, kappa, He Ab: mutation in one H chain only; also called He Ab) heavy 1: not shown heavy 2: not shown light: DIVMTQSPLSLPVTPGEPASISCQASESLVHSNRNTYLHWYLQKPGQSPQLLIYKVSNRFSGVPDRFSGSGSGTDFTLKISRVEAEDVGVYYCSQNTHVPPTFGQGTKVEIERTVAAPSVFIFPPSDEQLKSGTASVVCLLNNFYPREAKVQWKVDNALQSGNSQESVTEQDSKDSTYSLSSTLTLSKADYEKHKVYACEVTHQGLSSPVTKSFNRGEC | 102 % of GpH7-A5/GpH7-B3/GpL16-k0 | 63.1 % of GpH7-A5/GpH7-B3/GpL16-k0
2 | GpH7-A5/GpH7-B3 variant S337_19Q/GpL16-k0 (antibody, human IgG1, kappa, He Ab: mutation in one H chain only; also called He Ab) heavy 1: not shown heavy 2: not shown light: DIVMTQSPLSLPVTPGEPASISCQASESLVHSNRNTYLHWYLQKPGQSPQLLIYKVSNRFSGVPDRFSGSGSGTDFTLKISRVEAEDVGVYYCSQNTHVPPTFGQGTKVEIERTVAAPSVFIFPPSDEQLKSGTASVVCLLNNFYPREAKVQWKVDNALQSGNSQESVTEQDSKDSTYSLSSTLTLSKADYEKHKVYACEVTHQGLSSPVTKSFNRGEC | 105 % of GpH7-A5/GpH7-B3/GpL16-k0 | 99.7 % of GpH7-A5/GpH7-B3/GpL16-k0
3 | GpH7-A5/GpH7-B3 variant S337_12R/GpL16-k0 (antibody, human IgG1, kappa, He Ab: mutation in one H chain only; also called He Ab) heavy 1: not shown heavy 2: not shown light: DIVMTQSPLSLPVTPGEPASISCQASESLVHSNRNTYLHWYLQKPGQSPQLLIYKVSNRFSGVPDRFSGSGSGTDFTLKISRVEAEDVGVYYCSQNTHVPPTFGQGTKVEIERTVAAPSVFIFPPSDEQLKSGTASVVCLLNNFYPREAKVQWKVDNALQSGNSQESVTEQDSKDSTYSLSSTLTLSKADYEKHKVYACEVTHQGLSSPVTKSFNRGEC | 106 % of GpH7-A5/GpH7-B3/GpL16-k0 | 99.5 % of GpH7-A5/GpH7-B3/GpL16-k0
4 | GpH7-A5/GpH7-B3 variant S324_20W/GpL16-k0 (antibody, human IgG1, kappa, He Ab: mutation in one H chain only; also called He Ab) heavy 1: not shown heavy 2: not shown light: DIVMTQSPLSLPVTPGEPASISCQASESLVHSNRNTYLHWYLQKPGQSPQLLIYKVSNRFSGVPDRFSGSGSGTDFTLKISRVEAEDVGVYYCSQNTHVPPTFGQGTKVEIERTVAAPSVFIFPPSDEQLKSGTASVVCLLNNFYPREAKVQWKVDNALQSGNSQESVTEQDSKDSTYSLSSTLTLSKADYEKHKVYACEVTHQGLSSPVTKSFNRGEC | 114 % of GpH7-A5/GpH7-B3/GpL16-k0 | 87.5 % of GpH7-A5/GpH7-B3/GpL16-k0

The remaining lines, values ahead:

Row | He/Con_1a (FcγRIa) | He/Con_2b (FcγRIIb) | Binder
5 | 116 % of GpH7-A5/GpH7-B3/GpL16-k0 | 81.1 % of GpH7-A5/GpH7-B3/GpL16-k0 | GpH7-A5/GpH7-B3 variant S324_18N/GpL16-k0 (antibody, human IgG1, kappa, He Ab: mutation in one H chain only; also called He Ab) heavy 1: not shown heavy 2: not shown light: DIVMTQSPLSLPVTPGEPASISCQASESLVHSNRNTYLHWYLQKPGQSPQLLIYKVSNRFSGVPDRFSGSGSGTDFTLKISRVEAEDVGVYYCSQNTHVPPTFGQGTKVEIERTVAAPSVFIFPPSDEQLKSGTASVVCLLNNFYPREAKVQWKVDNALQSGNSQESVTEQDSKDSTYSLSSTLTLSKADYEKHKVYACEVTHQGLSSPVTKSFNRGEC
6 | 112 % of GpH7-A5/GpH7-B3/GpL16-k0 | 66.8 % of GpH7-A5/GpH7-B3/GpL16-k0 | GpH7-A5/GpH7-B3 variant S324_19Q/GpL16-k0 (antibody, human IgG1, kappa, He Ab: mutation in one H chain only; also called He Ab) heavy 1: not shown heavy 2: not shown light: DIVMTQSPLSLPVTPGEPASISCQASESLVHSNRNTYLHWYLQKPGQSPQLLIYKVSNRFSGVPDRFSGSGSGTDFTLKISRVEAEDVGVYYCSQNTHVPPTFGQGTKVEIERTVAAPSVFIFPPSDEQLKSGTASVVCLLNNFYPREAKVQWKVDNALQSGNSQESVTEQDSKDSTYSLSSTLTLSKADYEKHKVYACEVTHQGLSSPVTKSFNRGEC
7 | 105 % of GpH7-A5/GpH7-B3/GpL16-k0 | 77.4 % of GpH7-A5/GpH7-B3/GpL16-k0 | GpH7-A5/GpH7-B3 variant S324_10E/GpL16-k0 (antibody, human IgG1, kappa, He Ab: mutation in one H chain only; also called He Ab) heavy 1: not shown heavy 2: not shown light: DIVMTQSPLSLPVTPGEPASISCQASESLVHSNRNTYLHWYLQKPGQSPQLLIYKVSNRFSGVPDRFSGSGSGTDFTLKISRVEAEDVGVYYCSQNTHVPPTFGQGTKVEIERTVAAPSVFIFPPSDEQLKSGTASVVCLLNNFYPREAKVQWKVDNALQSGNSQESVTEQDSKDSTYSLSSTLTLSKADYEKHKVYACEVTHQGLSSPVTKSFNRGEC
8 | 107 % of GpH7-A5/GpH7-B3/GpL16-k0 | 96.7 % of GpH7-A5/GpH7-B3/GpL16-k0 | GpH7-A5/GpH7-B3 variant S337_06M/GpL16-k0 (antibody, human IgG1, kappa, He Ab: mutation in one H chain only; also called He Ab) heavy 1: not shown heavy 2: not shown light: DIVMTQSPLSLPVTPGEPASISCQASESLVHSNRNTYLHWYLQKPGQSPQLLIYKVSNRFSGVPDRFSGSGSGTDFTLKISRVEAEDVGVYYCSQNTHVPPTFGQGTKVEIERTVAAPSVFIFPPSDEQLKSGTASVVCLLNNFYPREAKVQWKVDNALQSGNSQESVTEQDSKDSTYSLSSTLTLSKADYEKHKVYACEVTHQGLSSPVTKSFNRGEC
9 | 106 % of GpH7-A5/GpH7-B3/GpL16-k0 | 97.2 % of GpH7-A5/GpH7-B3/GpL16-k0 | GpH7-A5/GpH7-B3 variant S337_02A/GpL16-k0 (antibody, human IgG1, kappa, He Ab: mutation in one H chain only; also called He Ab) heavy 1: not shown heavy 2: not shown light: DIVMTQSPLSLPVTPGEPASISCQASESLVHSNRNTYLHWYLQKPGQSPQLLIYKVSNRFSGVPDRFSGSGSGTDFTLKISRVEAEDVGVYYCSQNTHVPPTFGQGTKVEIERTVAAPSVFIFPPSDEQLKSGTASVVCLLNNFYPREAKVQWKVDNALQSGNSQESVTEQDSKDSTYSLSSTLTLSKADYEKHKVYACEVTHQGLSSPVTKSFNRGEC
10 | 104 % of GpH7-A5/GpH7-B3/GpL16-k0 | 94.3 % of GpH7-A5/GpH7-B3/GpL16-k0 | GpH7-A5/GpH7-B3 variant S337_11K/GpL16-k0 (antibody, human IgG1, kappa, He Ab: mutation in one H chain only; also called He Ab) heavy 1: not shown heavy 2: not shown light: DIVMTQSPLSLPVTPGEPASISCQASESLVHSNRNTYLHWYLQKPGQSPQLLIYKVSNRFSGVPDRFSGSGSGTDFTLKISRVEAEDVGVYYCSQNTHVPPTFGQGTKVEIERTVAAPSVFIFPPSDEQLKSGTASVVCLLNNFYPREAKVQWKVDNALQSGNSQESVTEQDSKDSTYSLSSTLTLSKADYEKHKVYACEVTHQGLSSPVTKSFNRGEC
